Laboratory results: publication PMC4703885

Molecular target: protein phosphatase PP1 (endogenous), P36873
Assay: EGFP trap, immunoblotting, densitometric analysis
Conditions: chain shown with the change; non-synchronized HEK293T cells; three independent experiments; parent: est. 1.0; read off a plot

Sequence of protein phosphatase PP1 (endogenous), P36873 (P36873 whole entry): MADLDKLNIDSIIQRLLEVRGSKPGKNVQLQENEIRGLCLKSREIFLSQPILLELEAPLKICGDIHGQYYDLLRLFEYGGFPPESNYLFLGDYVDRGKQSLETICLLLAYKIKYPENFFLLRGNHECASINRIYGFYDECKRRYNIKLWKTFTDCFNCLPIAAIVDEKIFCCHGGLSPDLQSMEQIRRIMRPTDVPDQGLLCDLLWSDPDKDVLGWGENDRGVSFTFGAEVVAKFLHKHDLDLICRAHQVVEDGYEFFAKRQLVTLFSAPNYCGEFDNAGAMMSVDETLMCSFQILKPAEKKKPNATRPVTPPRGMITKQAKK

| ratio to parent | Binder |
| --- | --- |
| 0.19 | EGFP-tagged RepoMan-WT, Q69YH5 S400D; T412D; T419D (protein) MDANSKDKPPETKESAMNNAGNASFILGTGKIVTPQKHAELPPNPCTPDTFKSPLNFSTVTVEQLGITPESFVRNSAGKSSSYLKKCRRRSAVGARGSPETNHLIRFIARQQNIKNARKSPLAQDSPSQGSPALYRNVNTLRERISAFQSAFHSIKENEKMTGCLEFSEAGKESEMTDLTRKEGLSACQQSGFPAVLSSKRRRISYQRDSDENLTDAEGKVIGLQIFNIDTDRACAVETSVDLSEISSKLGSTQSGFLVEESLPLSELTETSNALKVADCVVGKGSSDAVSPDTFTAEVSSDAVPDVRSPATPACRRDLPTPKTFVLRSVLKKPSVKMCLESLQEHCNNLYDDDGTHPSLISNLPNCCKEKEAEDEENFEAPAFLNMRKRKRVTFGEDLDPEVFDESLPANDPLRKGGDPVCKKDFSGLSSLLLEQSPVPEPLPQPDFDDKGENLENIEPLQVSFAVLSSPNKSSISETLSGTDTFSSSNNHEKISSPKVGRITRTSNRRNQLVSVVEESVCNLLNTEVQPCKEKKINRRKSQETKCTKRALPKKSQVLKSCRKKKGKGKKSVQKSLYGERDIASKKPLLSPIPELPEVPEMTPSIPSIRRLGSGYFSSNGKLEEVKTPKNPVKRKDLLRHDPDLHMHQGYDKYDVSEFCSYIKSSSSLGNATSDEDPNTNIMNINENKNIPKAKNKSESENEPKAGTDSPVSCASVTEERVASDSPKPALTLQQGQEFSAGGQNAENLCQFFKISPDLNIKCERKDDFLGAAEGKLQCNRLMPNSQKDCHCLGDVLIENTKESKSQSEDLGRKPMESSSVVSCRDRKDRRRSMCYSDGRSLHLEKNGNHTPSSSVGSSVEISLENSELFKDLSDAIEQTFQRRNSETKVRRSTRLQKDLENEGLVWISLPLPSTSQKAKRRTICTFDSSGFESMSPIKETVSSRQKPQMAPPVSDPENSQGPAAGSSDEPGKRRKSFCISTLANTKATSQFKGYRRRSSLNGKGESSLTALERIEHNGERKQ |
| 0.43 | EGFP-tagged RepoMan-WT, Q69YH5 T412D (protein) MDANSKDKPPETKESAMNNAGNASFILGTGKIVTPQKHAELPPNPCTPDTFKSPLNFSTVTVEQLGITPESFVRNSAGKSSSYLKKCRRRSAVGARGSPETNHLIRFIARQQNIKNARKSPLAQDSPSQGSPALYRNVNTLRERISAFQSAFHSIKENEKMTGCLEFSEAGKESEMTDLTRKEGLSACQQSGFPAVLSSKRRRISYQRDSDENLTDAEGKVIGLQIFNIDTDRACAVETSVDLSEISSKLGSTQSGFLVEESLPLSELTETSNALKVADCVVGKGSSDAVSPDTFTAEVSSDAVPDVRSPATPACRRDLPTPKTFVLRSVLKKPSVKMCLESLQEHCNNLYDDDGTHPSLISNLPNCCKEKEAEDEENFEAPAFLNMRKRKRVTFGEDLSPEVFDESLPANDPLRKGGTPVCKKDFSGLSSLLLEQSPVPEPLPQPDFDDKGENLENIEPLQVSFAVLSSPNKSSISETLSGTDTFSSSNNHEKISSPKVGRITRTSNRRNQLVSVVEESVCNLLNTEVQPCKEKKINRRKSQETKCTKRALPKKSQVLKSCRKKKGKGKKSVQKSLYGERDIASKKPLLSPIPELPEVPEMTPSIPSIRRLGSGYFSSNGKLEEVKTPKNPVKRKDLLRHDPDLHMHQGYDKYDVSEFCSYIKSSSSLGNATSDEDPNTNIMNINENKNIPKAKNKSESENEPKAGTDSPVSCASVTEERVASDSPKPALTLQQGQEFSAGGQNAENLCQFFKISPDLNIKCERKDDFLGAAEGKLQCNRLMPNSQKDCHCLGDVLIENTKESKSQSEDLGRKPMESSSVVSCRDRKDRRRSMCYSDGRSLHLEKNGNHTPSSSVGSSVEISLENSELFKDLSDAIEQTFQRRNSETKVRRSTRLQKDLENEGLVWISLPLPSTSQKAKRRTICTFDSSGFESMSPIKETVSSRQKPQMAPPVSDPENSQGPAAGSSDEPGKRRKSFCISTLANTKATSQFKGYRRRSSLNGKGESSLTALERIEHNGERKQ |
